Source: publication PMC11711466, “Reconstitution of human DNA licensing and the structural and functional analysis of key intermediates” (Nature Communications, 2024)

Molecular target: T1, human origin recognition complex hORC1-5 (human, UniProt Q13415 1-861; Q13416 1-577; Q9UBD5 1-711; O43929 1-436; O43913 1-435)
T1 construct: human origin recognition complex subunit 1 (hORC1); human origin recognition complex subunit 2 (hORC2); human origin recognition complex subunit 3 (hORC3); human origin recognition complex subunit 4 (hORC4); human origin recognition complex subunit 5 (hORC5); The Strep tag on hORC1 was kept for the pull-down; also called Strep-hORC1-5; hORC1-5WT; source: S. cerevisiae YC658, galactose-induced, …
Assay: cryo-EM structure; hOCCM from a low-salt washed pre-RC reaction with ATPγS, eluted from the DNA beads with DNaseI; 6.09 Å
Conditions: both partners purified

B1: human MCM5 (natural protein, UniProt P33992 1-734, looked up)
chain: MSGFDDPGIFYSDSFGGDAQADEGQARKSQLQRRFKEFLRQYRVGTDRTGFTFKYRDELKRHYNLGEYWIEVEMEDLASFDEDLADYLYKQPAEHLQLLEEAAKEVADEVTRPRPSGEEVLQDIQVMLKSDASPSSIRSLKSDMMSHLVKIPGIIIAASAVRAKATRISIQCRSCRNTLTNIAMRPGLEGYALPRKCNTDQAGRPKCPLDPYFIMPDKCKCVDFQTLKLQELPDAVPHGEMPRHMQLYCDRYLCDKVVPGNRVTIMGIYSIKKFGLTTSRGRDRVGVGIRSSYIRVLGIQVDTDGSGRSFAGAVSPQEEEEFRRLAALPNVYEVISKSIAPSIFGGTDMKKAIACLLFGGSRKRLPDGLTRRGDINLLMLGDPGTAKSQLLKFVEKCSPIGVYTSGKGSSAAGLTASVMRDPSSRNFIMEGGAMVLADGGVVCIDEFDKMREDDRVAIHEAMEQQTISIAKAGITTTLNSRCSVLAAANSVFGRWDETKGEDNIDFMPTILSRFDMIFIVKDEHNEERDVMLAKHVITLHVSALTQTQAVEGEIDLAKLKKFIAYCRVKCGPRLSAEAAEKLKNRYIIMRSGARQHERDSDRRSSIPITVRQLEAIVRIAEALSKMKLQPFATEADVEEALRLFQVSTLDAALSGTLSGVEGFTSQEDQEMLSRIEKQLKRRFAIGSQVSEHSIIKDFTKQKYPEHAIHKVLQLMLRRGEIQHRMQRKVLYRLK
notes: Subunit of m6; also called hMCM5; source: HEK293-F, co-expressed hMCM2-7; in lysate (co-purification) and purified as hMCM2-7 (Ni-NTA, StrepTrapXT)
- binding result: binds
